Columns and labels:
[1] = tested on: FLAG-tagged HP1α; experiment: pull-down with Strep-tagged KAP1, Western blot; assay type: binding; details: Strep-tagged full-length KAP1 mutant, HCT116 cells; 3 biological replicates
Method: For all AP experiments, HCT116 cells were seeded in 10 cm plates (~4 million cells per dish) and transfected with Strep- and Flag-tagged plasmids one-day after seeding cells. Two days post-transfection, cells were collected in PBS and lysed with passive lysis buffer (PLB: 50 mM Tris-HCl pH 7.5, 150 mM NaCl, 1 mM DTT, 1.0% NP-40, 1.5 mM MgCl2, 5% v/v glycerol, and 1X complete, Mini EDTA-free, EASYpack Protease Inhibitor [Roche, Cat# 4693159001]) by resuspending cells in PLB, vortexing briefly, nutating for 15 min at 4 °C, and centrifuging the lysate (10,000 × g, 10 min, 4 °C). Strep-Tactin superflow resin (IBA Life Sciences, Cat# 2-1208-010), was equilibrated by centrifuging beads (2000 RPM, 2 min, 4 °C), removing storage buffer, and washing three times with PLB with nutation for 5 min at 4 °C. Beads were volumed back to their original volume, and 40 µL beads were used per AP and bound for 2 h. Beads were then washed with AP Wash Buffer (50 mM Tris-HCl pH 7.5, 250 mM NaCl, 1 mM DTT, 0.2% NP-40, 1.5 mM MgCl2, and 5% v/v glycerol), and eluted with Strep-tag Elution Buffer containing D-Desthiobiotin (IBA Life Sciences, Cat# 2-1000-025). […]
Tryptophan fluorescence data are presented as average of three independent measurements ±SD. […]

[2] = tested on: endogenous retroelements in KAP1 cKO ESCs; experiment: ATAC-seq chromatin accessibility; assay type: cell-based, mouse; details: exogenous expression in KAP1 cKO ESCs, 2 μg/mL doxycycline, 2 μM 4-OHT 48 h
Method: ESCs were maintained under standard conditions on gelatin-coated plates at 37 °C at 5% CO2 in Knockout DMEM (Thermo Fisher) supplemented with NEAA, GlutaMAX, penicillin/streptomycin (Thermo Fisher), 15% ESC-screened fetal bovine serum (Hyclone), 0.1 mM 2-mercaptoethanol (Fisher), and leukemia-inhibitory factor (LIF). Generation of KAP1 cKO ESCs has been described previously. The piggybac transposon system was used to stably integrate transgenic Flag-tagged WT or V488E mutant KAP1 under control of an rtTA promoter (Systems Biosciences, PB-TRE-EGFP-EF1a-rtTA) into the inducible KAP1 cKO ESCs. Exogenous expression of WT or V488E mutant KAP1 was induced with 2 μg/mL doxycycline for 48 h and maintained in doxycycline prior to endogenous KAP1 deletion. KAP1 deletion was induced with 2 μM 4-OHT (Sigma) treatment for 48 h. […]
The modified ATAC-sequencing protocol Omni-ATAC was performed. […] Number of further PCR cycles required was determined using KAPA Library Quantification Kit (KK4854). […]
Quality of datasets was assessed using the FastQC tool. Raw reads were adapter and quality trimmed using Trimgalore. Trimmed reads were aligned to the mouse reference genome (mm10) with Bowtie2. Multimapping reads were randomly assigned. Optical duplicate reads were filtered using Picard (https://broadinstitute.github.io/picard/). Reads which mapped to the mitochondrial genome were removed with Samtools. […]

B1: V488E KAP1: V488E mutant of KAP1, impaired in binding to HP1 (protein)
chain: MAASAAAASAAAASAASGSPGPGEGSAGGEKRSTAPSAAASASASAAASSPAGGGAEALELLEHCGVCRERLRPEREPRLLPCLHSACSACLGPAAPAAANSSGDGGAAGDGTVVDCPVCKQQCFSKDIVENYFMRDSGSKAATDAQDANQCCTSCEDNAPATSYCVECSEPLCETCVEAHQRVKYTKDHTVRSTGPAKSRDGERTVYCNVHKHEPLVLFCESCDTLTCRDCQLNAHKDHQYQFLEDAVRNQRKLLASLVKRLGDKHATLQKSTKEVRSSIRQVSDVQKRVQVDVKMAILQIMKELNKRGRVLVNDAQKVTEGQQERLERQHWTMTKIQKHQEHILRFASWALESDNNTALLLSKKLIYFQLHRALKMIVDPVEPHGEMKFQWDLNAWTKSAEAFGKIVAERPGTNSTGPAPMAPPRAPGPLSKQGSGSSQPMEVQEGYGFGSGDDPYSSAEPHVSGVKRSRSGEGEVSGLMRKVPRESLERLDLDLTADSQPPVFKVFPGSTTEDYNLIVIERGAAAAATGQPGTAPAGTPGAPPLAGMAIVKEEETEAAIGAPPTATEGPETKPVLMALAEGPGAEGPRLASPSGSTSSGLEVVAPEGTSAPGGGPGTLDDSATICRVCQKPGDLVMCNQCEFCFHLDCHLPALQDVPGEEWSCSLCHVLPDLKEEDGSLSLDGADSTGVVAKLSPANQRKCERVLLALFCHEPCRPLHQLATDSTFSLDQPGGTLDLTLIRARLQEKLSPPYSSPQEFAQDVGRMFKQFNKLTEDKADVQSIIGLQRFFETRMNEAFGDTKFSAVLVEPPPMSLPGAGLSSQELSGGPGDGP
modifications: left off: Strep, end not stated, kept
- pull-down of FLAG-tagged HP1α [1]: eliminated binding of exogenously expressed FLAG-tagged HP1α
- restoration of closed chromatin at IAPEz, MERVK10C and ETn [2]: could not restore a closed chromatin state to the same extent observed with expression of WT KAP1

Reference: publication PMC12126490, “The HP1 box of KAP1 organizes HP1α for silencing of endogenous retroviral elements in embryonic stem cells” (Nature Communications, 2025)
